Source: article PMC4840364

Target: glycoprotein Ibα (GPIbα) on human platelets, P07359
Test: flow cytometry on cells
Conditions: chain shown with the change, human platelets incubated 20 min, washed once, FITC-conjugated goat anti-mouse IgG, MFI of 10,000 cells, read off a plot

response ([mAb] about 37 nM (read from x axis), parent: est. 320): 8 a.u.
response ([mAb] about 110 nM (read from x axis), parent: est. 290): 10 a.u.
B1: wild-type 5G6 Fab fragment (recombinant) H:T102A; H:T103A; H:T104A; H:T105A; L:D93A (protein)
chain 1: QVTLKESGPGILQPSQTLSLTCSFSGFSLSTSNMGVVWIRQPSGKGLEWLLHILWNDGKFYNPALKSRLTISKDTYNNQVFLKIANVDTADTATYYCARLFAAAASGYFDVWGAGTTVTVSS
chain 2: DIQMTQSPASLSASVGETVTITCRASGNIYNYLAWYQQKQGKSPQLLVYNAKTLADGVPSRFSGSGSGTQYSLKINSLQPEDFGSYFCQHFWATPWTFGGGTKLEIK
